Source: article PMC5397363 (Molecular microbiology, 2017)
Square brackets hold non-standard residues; d marks the D form. Ends that are not written are not given here. 2Abz = Nc1ccccc1C(=O)O

What was measured:
Assay in all cases: fluorescence polarisation
[1] = molecular target: Staphylococcus aureus Prp C34S (S. aureus, UniProt Q2FXS9 1-106, C34S)
[2] = molecular target: T1, Staphylococcus aureus Prp H22A (S. aureus, UniProt Q2FXS9 1-106, H22A)
T1 sequence: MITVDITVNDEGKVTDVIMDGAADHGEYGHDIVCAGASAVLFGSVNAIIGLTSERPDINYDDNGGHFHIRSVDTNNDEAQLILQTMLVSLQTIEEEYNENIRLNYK

[3] = molecular target: T2, Staphylococcus aureus Prp S38A (S. aureus, UniProt Q2FXS9 1-106, S38A)
T2 sequence: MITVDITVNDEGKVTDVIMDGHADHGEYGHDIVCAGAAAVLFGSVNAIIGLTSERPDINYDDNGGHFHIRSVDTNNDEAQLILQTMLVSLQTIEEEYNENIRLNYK

Measured: binding result

B1: 2-Abz-KLNLQFFASKK-Am, fluorescent L27 cleavage-motif peptide without quencher (peptide)
peptide: [2Abz]KLNLQFFASKK-NH2
modifications: N-terminus assumed
SMILES: CC(C)C[C@H](NC(=O)[C@H](CCCCN)NC(=O)c1ccccc1N)C(=O)N[C@@H](CC(N)=O)C(=O)N[C@@H](CC(C)C)C(=O)N[C@@H](CCC(N)=O)C(=O)N[C@@H](Cc1ccccc1)C(=O)N[C@@H](Cc1ccccc1)C(=O)N[C@@H](C)C(=O)N[C@@H](CO)C(=O)N[C@@H](CCCCN)C(=O)N[C@@H](CCCCN)C(N)=O
binds: all assays above
